To fix the notation:
B1: SOST (protein, UniProt Q9BQB4 24-213, looked up)
Sclerostin: QGWQAFKNDATEIIPELGEYPEPPPELENNKTMNRAENGGRPPHHPFETKDVSEYSCRELHFTRYVTDGPCRSAKPVTELVCSGQCGPARLLPNAIGRGKWWRPSGPDFRCIPDRYRAQRVQLLCPGGEAPRARKVRLVASCKCKRLTRFHNQSELKDFGTEAARPQKGRKPRPRARSAKANQAELENAY
B2: SIT1 (protein, UniProt Q9Y3P8 25-196, looked up)
Signaling …: DNCTDLLALGIPSITQAWGLWVLLGAVTLLFLISLAAHLSQWTRGRSRSHPGQGRSGESVEEVPLYGNLHYLQTGRLSQDPEPDQQDPTLGGPARAAEEVMCYTSLQLRPPQGRIPGPGTPVKYSEVVLDSEPKSQASGPEPELYASVCAQTRRARASFPDQAYANSQPAAS
B3: ANGPTL3 (protein, UniProt Q9Y5C1 17-460, looked up)
Angiopoietin-related protein 3: SRIDQDNSSFDSLSPEPKSRFAMLDDVKILANGLLQLGHGLKDFVHKTKGQINDIFQKLNIFDQSFYDLSLQTSEIKEEEKELRRTTYKLQVKNEEVKNMSLELNSKLESLLEEKILLQQKVKYLEEQLTNLIQNQPETPEHPEVTSLKTFVEKQDNSIKDLLQTVEDQYKQLNQQHSQIKEIENQLRRTSIQEPTEISLSSKPRAPRTTPFLQLNEIRNVKHDGIPAECTTIYNRGEHTSGMYAIRPSNSQVFHVYCDVISGSPWTLIQHRIDGSQNFNETWENYKYGFGRLDGEFWLGLEKIYSIVKQSNYVLRIELEDWKDNKHYIEYSFYLGNHETNYTLHLVAITGNVPNAIPENKDLVFSTWDHKAKGHFNCPEGYSGGWWWHDECGENNLNGKYNKPRAKSKPERRRGLSWKSQNGRLYSIKSTKMLIHPTDSESFE
B4: HCLS1 (protein, UniProt P14317 1-486, looked up)
Hematopoietic lineage …: MWKSVVGHDVSVSVETQGDDWDTDPDFVNDISEKEQRWGAKTIEGSGRTEHINIHQLRNKVSEEHDVLRKKEMESGPKASHGYGGRFGVERDRMDKSAVGHEYVAEVEKHSSQTDAAKGFGGKYGVERDRADKSAVGFDYKGEVEKHTSQKDYSRGFGGRYGVEKDKWDKAALGYDYKGETEKHESQRDYAKGFGGQYGIQKDRVDKSAVGFNEMEAPTTAYKKTTPIEAASSGTRGLKAKFESMAEEKRKREEEEKAQQVARRQQERKAVTKRSPEAPQPVIAMEEPAVPAPLPKKISSEAWPPVGTPPSSESEPVRTSREHPVPLLPIRQTLPEDNEEPPALPPRTLEGLQVEEEPVYEAEPEPEPEPEPEPENDYEDVEEMDRHEQEDEPEGDYEEVLEPEDSSFSSALAGSSGCPAGAGAGAVALGISAVAVYDYQGEGSDELSFDPDDVITDIEMVDEGWWRGRCHGHFGLFPANYVKLLE
B5: MPO (protein, UniProt P05164 165-745, looked up)
Myeloperoxidase: VTCPEQDKYRTITGMCNNRRSPTLGASNRAFVRWLPAEYEDGFSLPYGWTPGVKRNGFPVALARAVSNEIVRFPTDQLTPDQERSLMFMQWGQLLDHDLDFTPEPAARASFVTGVNCETSCVQQPPCFPLKIPPNDPRIKNQADCIPFFRSCPACPGSNITIRNQINALTSFVDASMVYGSEEPLARNLRNMSNQLGLLAVNQRFQDNGRALLPFDNLHDDPCLLTNRSARIPCFLAGDTRSSEMPELTSMHTLLLREHNRLATELKSLNPRWDGERLYQEARKIVGAMVQIITYRDYLPLVLGPTAMRKYLPTYRSYNDSVDPRIANVFTNAFRYGHTLIQPFMFRLDNRYQPMEPNPRVPLSRVFFASWRVVLEGGIDPILRGLMATPAKLNRQNQIAVDEIRERLFEQVMRIGLDLPALNMQRSRDHGLPGYNAWRRFCGLPQPETVGQLGTVLRNLKLARKLMEQYGTPNNIDIWMGGVSEPLKRKGRVGPLLACIIGTQFRKLRDGDRFWWENEGVFSMQQRQALAQISLPRIICDNTGITTVSKNNIFMSNSYPRDFVNCSTLPALNLASWREAS
B6: B4GAT1 (protein, UniProt O43505 1-415, looked up)
Beta-1,4-glucuronyltransferase …: MQMSYAIRCAFYQLLLAALMLVAMLQLLYLSLLSGLHGQEEQDQYFEFFPPSPRSVDQVKAQLRTALASGGVLDASGDYRVYRGLLKTTMDPNDVILATHASVDNLLHLSGLLERWEGPLSVSVFAATKEEAQLATVLAYALSSHCPDMRARVAMHLVCPSRYEAAVPDPREPGEFALLRSCQEVFDKLARVAQPGINYALGTNVSYPNNLLRNLAREGANYALVIDVDMVPSEGLWRGLREMLDQSNQWGGTALVVPAFEIRRARRMPMNKNELVQLYQVGEVRPFYYGLCTPCQAPTNYSRWVNLPEESLLRPAYVVPWQDPWEPFYVAGGKVPTFDERFRQYGFNRISQACELHVAGFDFEVLNEGFLVHKGFKEALKFHPQKEAENQHNKILYRQFKQELKAKYPNSPRRC
B7: ICAM3 (protein, UniProt P32942 30-547, looked up)
Intercellular adhesion …: QEFLLRVEPQNPVLSAGGSLFVNCSTDCPSSEKIALETSLSKELVASGMGWAAFNLSNVTGNSRILCSVYCNGSQITGSSNITVYRLPERVELAPLPPWQPVGQNFTLRCQVEDGSPRTSLTVVLLRWEEELSRQPAVEEPAEVTATVLASRDDHGAPFSCRTELDMQPQGLGLFVNTSAPRQLRTFVLPVTPPRLVAPRFLEVETSWPVDCTLDGLFPASEAQVYLALGDQMLNATVMNHGDTLTATATATARADQEGAREIVCNVTLGGERREARENLTVFSFLGPIVNLSEPTAHEGSTVTVSCMAGARVQVTLDGVPAAAPGQPAQLQLNATESDDGRSFFCSATLEVDGEFLHRNSSVQLRVLYGPKIDRATCPQHLKWKDKTRHVLQCQARGNPYPELRCLKEGSSREVPVGIPFFVNVTHNGTYQCQASSSRGKYTLVVVMDIEAGSSHFVPVFVAVLLTLGVVTIVLALMYVFREHQRSGSYHVREESTYLPLTSMQPTEAMGEEPSRAE
B8: DDX58 (protein, UniProt O95786 1-925, looked up)
Antiviral innate immune …: MTTEQRRSLQAFQDYIRKTLDPTYILSYMAPWFREEEVQYIQAEKNNKGPMEAATLFLKFLLELQEEGWFRGFLDALDHAGYSGLYEAIESWDFKKIEKLEEYRLLLKRLQPEFKTRIIPTDIISDLSECLINQECEEILQICSTKGMMAGAEKLVECLLRSDKENWPKTLKLALEKERNKFSELWIVEKGIKDVETEDLEDKMETSDIQIFYQEDPECQNLSENSCPPSEVSDTNLYSPFKPRNYQLELALPAMKGKNTIICAPTGCGKTFVSLLICEHHLKKFPQGQKGKVVFFANQIPVYEQQKSVFSKYFERHGYRVTGISGATAENVPVEQIVENNDIIILTPQILVNNLKKGTIPSLSIFTLMIFDECHNTSKQHPYNMIMFNYLDQKLGGSSGPLPQVIGLTASVGVGDAKNTDEALDYICKLCASLDASVIATVKHNLEELEQVVYKPQKFFRKVESRISDKFKYIIAQLMRDTESLAKRICKDLENLSQIQNREFGTQKYEQWIVTVQKACMVFQMPDKDEESRICKALFLYTSHLRKYNDALIISEHARMKDALDYLKDFFSNVRAAGFDEIEQDLTQRFEEKLQELESVSRDPSNENPKLEDLCFILQEEYHLNPETITILFVKTRALVDALKNWIEGNPKLSFLKPGILTGRGKTNQNTGMTLPAQKCILDAFKASGDHNILIATSVADEGIDIAQCNLVILYEYVGNVIKMIQTRGRGRARGSKCFLLTSNAGVIEKEQINMYKEKMMNDSILRLQTWDEAVFREKILHIQTHEKFIRDSQEKPKPVPDKENKKLLCRKCKALACYTADVRVIEECHYTVLGDAFKECFVSRPHPKPKQFSSFEKRAKIFCARQNCSHDWGIHVKYKTFEIPVIKIESFVVEDIATGVQTLYSKWKDFHFEKIPFDPAEMSK
B9: ROBO2 (protein, UniProt Q9HCK4 22-1378, looked up)
Roundabout homolog 2: SRLRQEDFPPRIVEHPSDVIVSKGEPTTLNCKAEGRPTPTIEWYKDGERVETDKDDPRSHRMLLPSGSLFFLRIVHGRRSKPDEGSYVCVARNYLGEAVSRNASLEVALLRDDFRQNPTDVVVAAGEPAILECQPPRGHPEPTIYWKKDKVRIDDKEERISIRGGKLMISNTRKSDAGMYTCVGTNMVGERDSDPAELTVFERPTFLRRPINQVVLEEEAVEFRCQVQGDPQPTVRWKKDDADLPRGRYDIKDDYTLRIKKTMSTDEGTYMCIAENRVGKMEASATLTVRAPPQFVVRPRDQIVAQGRTVTFPCETKGNPQPAVFWQKEGSQNLLFPNQPQQPNSRCSVSPTGDLTITNIQRSDAGYYICQALTVAGSILAKAQLEVTDVLTDRPPPIILQGPANQTLAVDGTALLKCKATGDPLPVISWLKEGFTFPGRDPRATIQEQGTLQIKNLRISDTGTYTCVATSSSGETSWSAVLDVTESGATISKNYDLSDLPGPPSKPQVTDVTKNSVTLSWQPGTPGTLPASAYIIEAFSQSVSNSWQTVANHVKTTLYTVRGLRPNTIYLFMVRAINPQGLSDPSPMSDPVRTQDISPPAQGVDHRQVQKELGDVLVRLHNPVVLTPTTVQVTWTVDRQPQFIQGYRVMYRQTSGLQATSSWQNLDAKVPTERSAVLVNLKKGVTYEIKVRPYFNEFQGMDSESKTVRTTEEAPSAPPQSVTVLTVGSYNSTSISVSWDPPPPDHQNGIIQEYKIWCLGNETRFHINKTVDAAIRSVIIGGLFPGIQYRVEVAASTSAGVGVKSEPQPIIIGRRNEVVITENNNSITEQITDVVKQPAFIAGIGGACWVILMGFSIWLYWRRKKRKGLSNYAVTFQRGDGGLMSNGSRPGLLNAGDPSYPWLADSWPATSLPVNNSNSGPNEIGNFGRGDVLPPVPGQGDKTATMLSDGAIYSSIDFTTKTSYNSSSQITQATPYATTQILHSNSIHELAVDLPDPQWKSSIQQKTDLMGFGYSLPDQNKGNNGGKGGKKKKNKNSSKPQKNNGSTWANVPLPPPPVQPLPGTELEHYAVEQQENGYDSDSWCPPLPVQTYLHQGLEDELEEDDDRVPTPPVRGVASSPAISFGQQSTATLTPSPREEMQPMLQAHLDELTRAYQFDIAKQTWHIQSNNQPPQPPVPPLGYVSGALISDLETDVADDDADDEEEALEIPRPLRALDQTPGSSMDNLDSSVTGKAFTSSQRPRPTSPFSTDSNTSAALSQSQRPRPTKKHKGGRMDQQPALPHRREGMTDEEALVPYSKPSFPSPGGHSSSGTASSKGSTGPRKTEVLRAGHQRNASDLLDIGYMGSNSQGQFTGEL
B10: CA12 (protein, UniProt O43570 25-354, looked up)
Carbonic anhydrase 12: APVNGSKWTYFGPDGENSWSKKYPSCGGLLQSPIDLHSDILQYDASLTPLEFQGYNLSANKQFLLTNNGHSVKLNLPSDMHIQGLQSRYSATQLHLHWGNPNDPHGSEHTVSGQHFAAELHIVHYNSDLYPDASTASNKSEGLAVLAVLIEMGSFNPSYDKIFSHLQHVKYKGQEAFVPGFNIEELLPERTAEYYRYRGSLTTPPCNPTVLWTVFRNPVQISQEQLLALETALYCTHMDDPSPREMINNFRQVQKFDERLVYTSFSQVQVCTAAGLSLGIILSLALAGILGICIVVVVSIWLFRRKSIKKGDNKGVIYKPATKMETEAHA

In the assay the test system is plasma proteins. As to the kind of experiment: Plasma proteins modulated between baseline and day 28 in responders (CR, VGPR, PR; n = 19), Example 6 (Table 13). It is filed as in vivo, human. The conditions noted are these: plasma protein (OLINK NPX); responders (CR, VGPR, PR; n = 19); itacitinib 200 mg or 300 mg QD with corticosteroids; day 28 vs baseline. The method, boiled down:
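Longitudinal comparison, day 28 versus baseline, with steroid-naive (N=10) and steroid-refractory (N=18) patients combined. Proteins measured by OLINK proximity extension, log2 normalized protein expression. Differences tested by t tests, ANOVA, Pearson correlation, P<0.05 significant.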
In the case of B1, the “Fold Change, Decreased Expression from Baseline to Day 28” value (“Fold Change, Decreased Expression” for short) is listed as −1.3214.
The same measure, in the same setting: the result for B2 reads −1.5501.
On to B3, for which the “Fold Change, Increased Expression from Baseline to Day 28” value (from here on “Fold Change, Increased Expression”) turned out to be 1.2673.
On to B4, for which the “Fold Change, Decreased Expression” value is −1.455.
Same read-out and setting: the result for B5 reads −1.8431.
Turning to B6, the “Fold Change, Increased Expression” value is listed as 1.2795.
With B7, the “Fold Change, Decreased Expression” value is given as −1.464.
The same measure, in the same setting: the value for B8 was −1.6381.
Turning to B9, the “Fold Change, Increased Expression” value is 1.249.
On the same count and under the same terms, the value for B10 was 1.247.

The values are drawn from patent US12099068B2, “Biomarkers for graft-versus-host disease” (Incyte Corporation, priority 2018, dated 2024).
